Assay [1] addresses T1, human FAPα (Fibroblast activation protein alpha), cell surface expressed (human, UniProt Q12884 1-760).
T1 construct: Endogenous on human lung fibroblasts and CAFs
T1 sequence: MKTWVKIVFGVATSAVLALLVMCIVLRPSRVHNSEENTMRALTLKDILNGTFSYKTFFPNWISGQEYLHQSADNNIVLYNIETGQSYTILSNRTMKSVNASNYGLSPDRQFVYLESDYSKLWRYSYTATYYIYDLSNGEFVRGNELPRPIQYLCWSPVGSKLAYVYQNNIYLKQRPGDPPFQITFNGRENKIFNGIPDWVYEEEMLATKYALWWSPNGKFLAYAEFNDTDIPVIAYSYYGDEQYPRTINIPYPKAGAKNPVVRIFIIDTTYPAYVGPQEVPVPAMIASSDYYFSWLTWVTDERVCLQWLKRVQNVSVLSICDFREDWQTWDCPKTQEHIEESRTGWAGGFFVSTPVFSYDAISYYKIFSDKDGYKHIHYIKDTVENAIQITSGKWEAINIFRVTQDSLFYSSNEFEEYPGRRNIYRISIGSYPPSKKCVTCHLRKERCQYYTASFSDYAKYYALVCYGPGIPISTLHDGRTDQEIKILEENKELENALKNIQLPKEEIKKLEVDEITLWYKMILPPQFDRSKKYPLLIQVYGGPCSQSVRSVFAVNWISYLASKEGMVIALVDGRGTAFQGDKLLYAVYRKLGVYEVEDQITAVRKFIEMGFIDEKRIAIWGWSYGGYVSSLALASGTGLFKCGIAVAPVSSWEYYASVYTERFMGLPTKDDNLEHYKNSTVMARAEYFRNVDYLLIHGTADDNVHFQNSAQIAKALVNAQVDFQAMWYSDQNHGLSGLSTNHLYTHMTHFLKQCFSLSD
The experiment in a line: flow cytometry, human lung fibroblasts, n = 2. As for the experimental part:
Human lung fibroblasts and CAFs (50,000 cells/well) were seeded in 96-Well round bottom plates (Greiner Bio-one, Cat #650101). Antibody dilutions were prepared using fluorescence-activated cell sorting (FACS) buffer, consisting of phosphate buffer saline (PBS, Lonza, Cat #BE17-517Q)+1% Bovine Serum Albumin (BSA, Roche, Cat #10735086001)+0.02% Sodium Azide (Bio-World, Cat #41920044-3). Plates were centrifuged, supernatant was removed, cells were resuspended in 50 μL of human Fc Block (BD, Cat #564220, diluted 1:100 in FACS buffer) and 50 μL of viability stain TO-PRO-3 Iodide (Thermo Fisher, Cat #T3605, diluted 1: 25,000 in FACS buffer), and incubated for 15 min at 4° C. Plates were washed three times with FACS buffer. Plates were centrifuged, supernatant was removed, cells were resuspended in 50 μL of antibody dilutions (concentration range 90-0.0005 μg/mL, three-fold dilution steps using FACS buffer) of BisG1-FAPα-FERL/DR4-FERR, BisG1-FAPα-FERL/b12-FERR, BisG1-b12-FERL/b12-FERR (top six concentrations only for CAFs culture) or IgG1-FAPα-FERL (top four concentrations only for CAFs culture) and incubated for 30 min at 4° C. Cells were washed three times with FACS buffer and resuspended in 50 μL of Fluorescein isothiocyanate (FITC)-labeled polyclonal antibody goat anti-mouse IgG1 (Jackson Immuno Research, Cat #109-096-097, diluted 1:100 in FACS buffer). […] Antibody binding to viable cells (TO-PRO-3 negative) was analyzed by flow cytometry on a FACSCelesta™ (BD biosciences) and data were processed using FlowJo_v10.8.1 (FlowJo LLC). Geomean fluorescence intensity, gMFI, was determined and visualized using GraphPad Prism. Binding curves were analyzed using nonlinear regression analysis. […]
Binding of FAPα-targeting monoclonal antibody clones, IgG1-FAPα-FEAL and IgG1-FAP5-FEAL, and bispecific antibodies carrying a binding arm derived from the two FAPα-binding clones (BisG1-FAPα-FEAL/b12-FEAR and BisG1-FAP5-FEAL/b12-FEAR) to human lung fibroblasts, which endogenously express FAPα, was compared and analyzed by flow cytometry.

In assay [2] the target is T2, FcγRIIIa-V158 (CD16a Protein, Human, Recombinant (176 Val, His & AVI Tag)) (human, UniProt P08637 17-208).
T2 construct: Bought reagent; not shown: His & AVI tag
T2 sequence (P08637 17-208 F176V limits assumed): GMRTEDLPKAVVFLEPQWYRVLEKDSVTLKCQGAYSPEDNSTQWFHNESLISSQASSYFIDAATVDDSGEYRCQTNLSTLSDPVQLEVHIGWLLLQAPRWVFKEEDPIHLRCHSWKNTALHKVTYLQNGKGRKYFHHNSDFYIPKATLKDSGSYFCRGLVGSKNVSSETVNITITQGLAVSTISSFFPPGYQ
As to the kind of experiment: SPR (Biacore 8K), His-tagged FcγRIIIa-V158 captured on an anti-His chip, antibody as analyte, endpoint response against concentration. On the procedure: Binding of BisG1-FAPα-FERL/DR4-FERR to immobilized human His-tagged FcγRs and FcRn was analyzed by SPR using a Biacore 8K SPR system (Cytiva). To this end, anti-His antibodies were covalently immobilized on the surface of Biacore Series S Sensor Chip CM5 (Cytiva, Cat. #29104988) using the Amine Coupling Kit (Cytiva, Cat. #BR100050) and a His Capture Kit (Cytiva, Cat. #29234602) according to the manufacturer's instructions. To assess antibody binding to immobilized human FcγRs, aliquots of the recombinant His-tagged FcγR proteins (Table 24) were diluted in HBS EP+Buffer pH 7.4 (Cytiva, Cat. #BR100669) and used to capture the FcγR proteins on the surface of the anti-His antibody-coated sensors using a flow rate of 10 μL/min and a contact time of 60 s. Captured levels ranged from 434 to 592 RU. After three start-up cycles of HBS-EP+Buffer, concentration ranges of BisG1-FAPα-FERL/DR4-FERR or IgG1-b12 antibodies (Table 25) were injected to generate binding curves on FcγR-captured sensors (active surface). For each antibody sample, a parallel flow cell without captured FcγRs was included (reference surface), which was used for RU background correction.
All sensorgrams were subtracted by the signal of the third start-up cycle with buffer only (mock analyte). […]

B1: BisG1-FAPα-FEAL/b12-FEAR (bispecific antibody, human IgG1, kappa)
heavy 1: EVQLLESGGGLVQPGGSPRLSCEASGFTFSSYALSWVRQAPGKGLEWVSAISGSGGGRYYADSVKGRFTISRDNSKNTLFLQMNSLRAEDTAVYYCAKEGYSSSGTYWDHWGQGTLVTVSSASTKGPSVFPLAPSSKSTSGGTAALGCLVKDYFPEPVTVSWNSGALTSGVHTFPAVLQSSGLYSLSSVVTVPSSSLGTQTYICNVNHKPSNTKVDKRVEPKSCDKTHTCPPCPAPEFEGGPSVFLFPPKPKDTLMISRTPEVTCVVVAVSHEDPEVKFNWYVDGVEVHNAKTKPREEQYNSTYRVVSVLTVLHQDWLNGKEYKCKVSNKALPAPIEKTISKAKGQPREPQVYTLPPSREEMTKNQVSLTCLVKGFYPSDIAVEWESNGQPENNYKTTPPVLDSDGSFLLYSKLTVDKSRWQQGNVFSCSVMHEALHNHYTQKSLSLSPG
light 1: AIQMTQSPSSVSASVGDRVTITCRASQGVSSWLAWYQQKPGRAPKLLIYVASTLQSGVPSRFSGSGSGTDFTLTINSLQPEDFATYYCQQANSFPPTFGQGTRLEMKRTVAAPSVFIFPPSDEQLKSGTASVVCLLNNFYPREAKVQWKVDNALQSGNSQESVTEQDSKDSTYSLSSTLTLSKADYEKHKVYACEVTHQGLSSPVTKSFNRGEC
heavy 2: QVQLVQSGAEVKKPGASVKVSCQASGYRFSNFVIHWVRQAPGQRFEWMGWINPYNGNKEFSAKFQDRVTFTADTSANTAYMELRSLRSADTAVYYCARVGPYSWDDSPQDNYYMDVWGKGTTVIVSSASTKGPSVFPLAPSSKSTSGGTAALGCLVKDYFPEPVTVSWNSGALTSGVHTFPAVLQSSGLYSLSSVVTVPSSSLGTQTYICNVNHKPSNTKVDKRVEPKSCDKTHTCPPCPAPEFEGGPSVFLFPPKPKDTLMISRTPEVTCVVVAVSHEDPEVKFNWYVDGVEVHNAKTKPREEQYNSTYRVVSVLTVLHQDWLNGKEYKCKVSNKALPAPIEKTISKAKGQPREPQVYTLPPSREEMTKNQVSLTCLVKGFYPSDIAVEWESNGQPENNYKTTPPVLDSDGSFFLYSRLTVDKSRWQQGNVFSCSVMHEALHNHYTQKSLSLSPG
light 2: EIVLTQSPGTLSLSPGERATFSCRSSHSIRSRRVAWYQHKPGQAPRLVIHGVSNRASGISDRFSGSGSGTDFTLTITRVEPEDFALYYCQVYGASSYTFGQGTKLERKRTVAAPSVFIFPPSDEQLKSGTASVVCLLNNFYPREAKVQWKVDNALQSGNSQESVTEQDSKDSTYSLSSTLTLSKADYEKHKVYACEVTHQGLSSPVTKSFNRGEC
notes: Fab-arm exchange of IgG1-FAPα-FEAL and IgG1-b12-FEAR
B1 came in with a half-maximal effective concentration (EC50) in assay [1] of 0.044 µg/mL.

B2: IgG1-b12 (antibody)
heavy: not shown
light: B1 light 2
notes: HIV gp120 antibody b12 with wild-type IgG1 Fc; also called IgG-b12
Regarding B2, the binding result in assay [2] is “binds”.

These data come from patent US20250002610A1 (Genmab, published 2025).
